From publication PMC7094590

Target: wild-type HCoV-229E Nsp9 (non-structural protein 9 of human coronavirus 229E) (human coronavirus 229E)
Assay: crystal structure

wild-type HCoV-229E Nsp9 (non-structural protein 9 of human coronavirus 229E) (natural protein)
stoichiometry N: 2
